Test results published in patent publication US20140329320A1 (OBSCHESTVO S OGRANICHENNOI OTVETSTVENNOSTYU TEKHNOPHARMA, published 2014).

Target: T1, chicken ovalbumin protein (chicken, UniProt P01012 2-386)
T1 construct: Immobilized in wells as negative control of the MIF assay; also called nonspecific protein; negative control
T1 sequence: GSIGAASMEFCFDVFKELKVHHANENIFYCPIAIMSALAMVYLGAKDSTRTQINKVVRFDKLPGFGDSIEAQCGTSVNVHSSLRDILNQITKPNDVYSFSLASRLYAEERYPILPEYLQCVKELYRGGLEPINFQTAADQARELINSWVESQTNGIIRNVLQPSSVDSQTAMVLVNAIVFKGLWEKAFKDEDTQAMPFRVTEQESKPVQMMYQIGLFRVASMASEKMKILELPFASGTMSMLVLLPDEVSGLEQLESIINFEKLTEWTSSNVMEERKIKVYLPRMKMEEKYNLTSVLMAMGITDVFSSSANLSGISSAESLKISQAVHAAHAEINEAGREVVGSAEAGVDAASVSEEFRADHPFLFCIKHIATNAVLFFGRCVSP
Test: microimmunofluorescence (MIF) on immobilized antigen, anti-HA and FITC secondary detection

B1: aCt1 nanoantibody (VHH)
VHH: QVQLVESGGGSVQAGGSLRLSCTTSHYVASNSCMAWFRQAPGKKREGVASISRRADITFYADSVKERFVISRDNSERTLYLQMNSLKPEDTAMYYCAADLSYCGLTEEGYNHWGQGTQVTVSS
notes: also called single domain nanoantibody aCt1
  binding result: no binding (tested: 10 µ/ml)

B2: aCt2 nanoantibody (VHH)
VHH: QVQLVESGGGSVQAGGSLRLHCASSGYVEARILMGWFRQAPGKEREGVAAIYIGDGTTDYGDSVKGRFTVSQDGAKNAIYLHMYDVKPEDAATYYCAAGIMPWYRTWSGRLNVGDFDSWGQGTQVTVSS
notes: also called single domain nanoantibody aCt2
  binding result: no binding (tested: 10 µ/ml)
